In patent US20110207116A1 (University of California, published 2011):

B1: PhyB(1-908)-10aaLinker-mCherry-Kras4BCT (other)
chain: MVSGVGGSGGGRGGGRGGEEEPSSSHTPNNRRGGEQAQSSGTKSLRPRSNTESMSKAIQQYTVDARLHAVFEQSGESGKSFDYSQSLKTTTYGSSVPEQQITAYLSRIQRGGYIQPFGCMIAVDESSFRIIGYSENAREMLGIMPQSVPTLEKPEILAMGTDVRSLFTSSSSILLERAFVAREITLLNPVWIHSKNTGKPFYAILHRIDVGVVIDLEPARTEDPALSIAGAVQSQKLAVRAISQLQALPGGDIKLLCDTVVESVRDLTGYDRVMVYKFHEDEHGEVVAESKRDDLEPYIGLHYPATDIPQASRFLFKQNRVRMIVDCNATPVLVVQDDRLTQSMCLVGSTLRAPHGCHSQYMANMGSIASLAMAVIINGNEDDGSNVASGRSSMRLWGLVVCHHTSSRCIPFPLRYACEFLMQAFGLQLNMELQLALQMSEKRVLRTQTLLCDMLLRDSPAGIVTQSPSIMDLVKCDGAAFLYHGKYYPLGVAPSEVQIKDVVEWLLANHADSTGLSTDSLGDAGYPGAAALGDAVCGMAVAYITKRDFLFWFRSHTAKEIKWGGAKHHPEDKDDGQRMHPRSSFQAFLEVVKSRSQPWETAEMDAIHSLQLILRDSFKESEAAMNSKVVDGVVQPCRDMAGEQGIDELGAVAREMVRLIETATVPIFAVDAGGCINGWNAKIAELTGLSVEEAMGKSLVSDLIYKENEATVNKLLSRALRGDEEKNVEVKLKTFSPELQGKAVFVVVNACSSKDYLNNIVGVCFVGQDVTSQKIVMDKFINIQGDYKAIVHSPNPLIPPIFAADENTCCLEWNMAMEKLTGWSRSEVIGKMIVGEVFGSCCMLKGPDALTKFMIVLHNAIGGQDTDKFPFPFFDRNGKFVQALLTANKRVSLEGKVIGAFCFLQIPSDSAGSAGSAGSKTKCVIM
modifications: phycocyanobilin (PCB) chromophore covalently bound; C-terminal CaaX prenylation sequence
notes: Expressed in NIH3T3 cells, localized to the plasma membrane; also called pAL149; PhyB908; not shown: mCherry fluorescent protein, amplified from a vector

Legend:
[1] = target: T1, PIF6APB-mYFP-20aaLinker-Rac1(Q61L)ΔCT (Arabidopsis thaliana, UniProt P63000 1-188); test: global light-activated membrane translocation in NIH3T3 cells, red light
T1 construct: also called pAL105; Rac1(Q61L, no caax); not shown: mYFP: EYFP with monomerizing A206K mutation

[2] = target: B1; test: YFP membrane translocation in NIH3T3 cells, confocal microscopy
[3] = target: T2, PhyB(1-650)-10aaLinker-mCherry-Kras4BCT (Arabidopsis thaliana, UniProt P14713 1-650, phycocyanobilin (PCB) chromophore covalently bound; C-terminal CaaX prenylation sequence); test: as above
T2 construct: Expressed in NIH3T3 cells at the plasma membrane; also called pAL117; PhyB-NT; not shown: mCherry fluorescent protein, amplified from a vector
T2 sequence: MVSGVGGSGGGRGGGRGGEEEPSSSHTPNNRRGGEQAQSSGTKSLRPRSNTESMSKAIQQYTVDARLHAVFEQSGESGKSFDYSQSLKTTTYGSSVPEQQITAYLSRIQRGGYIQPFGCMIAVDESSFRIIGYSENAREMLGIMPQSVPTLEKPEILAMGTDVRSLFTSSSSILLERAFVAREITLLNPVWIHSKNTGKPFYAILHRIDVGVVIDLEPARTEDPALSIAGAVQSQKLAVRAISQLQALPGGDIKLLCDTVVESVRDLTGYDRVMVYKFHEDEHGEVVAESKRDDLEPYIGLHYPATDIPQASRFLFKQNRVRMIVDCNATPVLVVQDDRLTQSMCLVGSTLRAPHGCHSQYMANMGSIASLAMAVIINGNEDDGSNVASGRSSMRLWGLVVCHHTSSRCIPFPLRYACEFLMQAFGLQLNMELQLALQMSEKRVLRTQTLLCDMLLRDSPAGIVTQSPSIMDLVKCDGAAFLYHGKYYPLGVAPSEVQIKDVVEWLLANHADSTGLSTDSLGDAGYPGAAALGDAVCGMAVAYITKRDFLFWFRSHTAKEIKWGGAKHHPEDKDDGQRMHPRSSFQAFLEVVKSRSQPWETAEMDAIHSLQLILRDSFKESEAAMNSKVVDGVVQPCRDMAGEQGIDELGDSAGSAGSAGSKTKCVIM

[4] = target: T3, PhyB(1-450)-10aaLinker-mCherry-Kras4BCT (Arabidopsis thaliana, UniProt P14713 1-450, phycocyanobilin (PCB) chromophore covalently bound; C-terminal CaaX prenylation sequence); test: as above
T3 construct: Expressed in NIH3T3 cells at the plasma membrane; also called pAL161; PhyB-CBD; not shown: mCherry fluorescent protein, amplified from a vector
T3 sequence: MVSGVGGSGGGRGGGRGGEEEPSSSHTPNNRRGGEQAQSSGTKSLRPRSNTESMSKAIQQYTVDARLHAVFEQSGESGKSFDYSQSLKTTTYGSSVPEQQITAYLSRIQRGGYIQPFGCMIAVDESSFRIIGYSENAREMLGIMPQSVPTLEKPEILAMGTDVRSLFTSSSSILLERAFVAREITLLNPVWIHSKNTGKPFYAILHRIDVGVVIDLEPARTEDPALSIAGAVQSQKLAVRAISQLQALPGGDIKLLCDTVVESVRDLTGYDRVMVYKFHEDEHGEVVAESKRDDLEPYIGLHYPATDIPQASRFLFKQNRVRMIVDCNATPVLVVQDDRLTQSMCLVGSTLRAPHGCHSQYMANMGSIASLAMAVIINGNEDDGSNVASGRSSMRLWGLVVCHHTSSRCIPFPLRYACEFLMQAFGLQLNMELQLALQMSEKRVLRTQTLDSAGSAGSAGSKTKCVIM

[5] = target: T4, PhyB(1-650)-Gal4DD-10aaLinker-mCherry-Kras4BCT (Arabidopsis thaliana; Saccharomyces …, UniProt P04386 50-106, phycocyanobilin (PCB) chromophore covalently bound; C-terminal CaaX prenylation sequence); test: as above
T4 construct: also called pAL148; not shown: mCherry fluorescent protein, amplified from a vector

[6] = target: T5, PhyBFL-10aaLinker-mCherry-Kras4BCT (Arabidopsis thaliana, UniProt P14713 1-1172, phycocyanobilin (PCB) chromophore covalently bound; C-terminal CaaX prenylation sequence); test: as above
T5 construct: also called pAL162; PhyB full length; not shown: mCherry fluorescent protein, amplified from a vector
T5 sequence: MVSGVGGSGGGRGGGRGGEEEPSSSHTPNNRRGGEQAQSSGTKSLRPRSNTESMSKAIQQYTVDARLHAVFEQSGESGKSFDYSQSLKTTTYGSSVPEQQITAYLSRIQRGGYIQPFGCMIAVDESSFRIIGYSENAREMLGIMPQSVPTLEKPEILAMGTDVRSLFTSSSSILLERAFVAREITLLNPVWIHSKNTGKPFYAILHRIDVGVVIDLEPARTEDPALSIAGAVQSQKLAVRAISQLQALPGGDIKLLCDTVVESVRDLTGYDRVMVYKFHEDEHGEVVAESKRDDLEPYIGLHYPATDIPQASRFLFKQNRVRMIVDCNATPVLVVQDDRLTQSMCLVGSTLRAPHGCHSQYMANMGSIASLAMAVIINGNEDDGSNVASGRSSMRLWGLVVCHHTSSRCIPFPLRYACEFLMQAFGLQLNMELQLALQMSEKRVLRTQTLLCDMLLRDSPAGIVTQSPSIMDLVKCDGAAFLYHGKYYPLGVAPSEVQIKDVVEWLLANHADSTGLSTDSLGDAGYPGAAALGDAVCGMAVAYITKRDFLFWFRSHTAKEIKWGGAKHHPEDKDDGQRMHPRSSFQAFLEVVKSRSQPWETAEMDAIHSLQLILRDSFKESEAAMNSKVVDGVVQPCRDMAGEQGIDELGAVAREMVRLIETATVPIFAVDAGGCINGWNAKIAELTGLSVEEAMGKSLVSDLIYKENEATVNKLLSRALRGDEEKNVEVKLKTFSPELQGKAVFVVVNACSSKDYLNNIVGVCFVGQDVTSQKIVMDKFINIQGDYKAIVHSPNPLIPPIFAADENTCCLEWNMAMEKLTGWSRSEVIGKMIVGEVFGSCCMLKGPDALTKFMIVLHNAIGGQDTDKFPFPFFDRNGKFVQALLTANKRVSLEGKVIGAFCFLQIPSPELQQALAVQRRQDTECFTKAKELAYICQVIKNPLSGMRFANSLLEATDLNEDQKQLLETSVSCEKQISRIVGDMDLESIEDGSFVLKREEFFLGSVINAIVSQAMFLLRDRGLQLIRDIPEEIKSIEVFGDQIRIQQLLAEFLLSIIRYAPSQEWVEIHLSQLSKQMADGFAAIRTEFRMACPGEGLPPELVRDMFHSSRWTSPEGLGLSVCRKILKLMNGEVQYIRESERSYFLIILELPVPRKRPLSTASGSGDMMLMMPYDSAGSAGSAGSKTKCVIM

Binder | binding result [1] | binding result [2] | binding result [3] | binding result [4] | binding result [5] | binding result [6]
B1 | binds |  |  |  |  | 
PIF3APB-mYFP (other, also called pAL100; PIF3-100NT; not shown: mYFP: EYFP with monomerizing A206K mutation) MPLFELFRLTKAKLESAQDRNPSPPVDEVVELVWENGQISTQSQSSRSRNIPPPQANSSRAREIGNGSKTTMVDEIPMSVPSLMTGLSQDDDFVPWLNHH |  | no binding | no binding | no binding | no binding | no binding
